Experimental findings from article PMC9242855 are described below.

This assay concerns the target CMGE (Cdc45–MCM–GINS–Pol ε) (S. cerevisiae) (UniProt P29469). Briefly: negative-stain electron microscopy (2D averages, ReconSil); full CMG assembly reaction on nucleosome-flanked ARS1 origin DNA; DDK-phosphorylated double hexamers incubated with CDK, Dpb11, GINS, Cdc45, Pol ε, Sld3–Sld7, Sld2 and 5 mM ATP, 30 min at 30 °C.

For “CMGE (Cdc45–MCM–GINS–Pol ε) (from UniProt P29469 1-868; P24279 1-971; P30665 1-933; P29496 1-775; P53091 1-1017; P38132 1-845; Q08032 1-650; Q03406 1-294; Q12146 1-194; P21951 1-2222; P24482 1-689) (complex)”, the percent of CMG particles that are dimers (dCMGE, cis configuration) came out at 11% and the percent of CMG particles that are dimers (dCMGE, trans configuration) was 70%.
